Data taken from FireProtDB (doi:10.1021/bi00250a042).

Conditions: Hordeum vulgare; pH 6.3; 25 °C; GdnHCl; Fluorescence; MES 450 mM; reversible: yes; whole UniProt chain shown

B1: Subtilisin-chymotrypsin inhibitor-2A wild type, P01053 (protein)
chain: MSSVEKKPEGVNTGAGDRHNLKTEWPELVGKSVEEAKKVILQDKPEAQIIVLPVGTIVTMEYRIDRVRLFVDKLDNIAQVPRVG
denaturant m value: 1.89 kcal/mol/M
denaturant midpoint (higher = more stable): 3.99 M
unfolding free energy: 7.53 kcal/mol
